These results are taken from patent US20200230168, “NUCLEIC ACID OLIGOMERS AND USES THEREFOR” (Queensland University of Technology, published 2020).

Data set [1] deals with T1, hSSB1 (Homo sapiens, UniProt Q9BQ15 Q9BQ15:1-211). Briefly: SPR; LSA_In3E3 = 1.
Another data set concerns the target THOC4 (ALYREF) (UniProt Q86V81 Q86V81:2-257). The data set can be described thus: EMSA; 10 mM Tris pH 8.0, 100 mM NaCl, 1 mM EDTA, 37C. On the technique in general: In EMSA bound probe runs differently from free probe, usually more slowly.
For data set [2], the target named is T2, mSSB1 (Mus musculus, UniProt Q8R2Y9 Q8R2Y9:1-212). Briefly: EMSA. The settings on record: label: FAM. As for the experimental part: (§1) FAM-labeled non-targeting PS compound, LSA_In3E3, PD compounds, DNA_In3E3 and RNA_In3E3, and a negative control oligomer compound, NEGC, were incubated separately with purified mouse SSB1 (mSSB1), hSSB1 and human SSB2 (hSSB2) proteins.

For data set [3], the target named is T1, hSSB1. Briefly: EMSA. The conditions noted are these: label: FAM. As to the method:
(§2) FIG. 15 is a graphic representation of hSSB1 EMSAs showing increasing concentrations of hSSB1 protein vs. 5 nM of FAM-labeled LSA_In3E3 sequence in either phosphorothioate (PS) or phosphodiester (PD) chemistry, or negative control sequence (Neg_C) in phosphorothioate chemistry. Graphs represent quantification of at least triplicate experiments, expressed as the fraction of oligomer compound bound to the protein. Purified protein was incubated with 5 nM of labeled oligomer compound for 15 min at 37° C. in a buffer consisting of 10 mM Tris-HCl (pH7.5), 100 mM KCl, 0.01% IGEPAL, 1 mM EDTA and 50 ng/μL BSA.
as §1

For data set [4], the target named is T1, hSSB1. Briefly: EMSA; 10 mM Tris, 1 mM EDTA, 37C; Table 7 gives 9 nM. The settings on record: label: FAM. As to the method:
as §2, §1

For a further data set, the target named is hSSB2 (Homo sapiens, UniProt Q96AH0 Q96AH0:1-204). Briefly: EMSA; Tris pH 7.5, 100 mM KCl, 1 mM EDTA, 37C; single EMSA. The settings on record: label: FAM. As to the method: FIG. 16 is a graphic representation of a single EMSA showing increasing concentrations of hSSB2 protein vs. 5 nM of FAM-labeled LSA_In3E3 sequence or negative control sequence (Neg_C) in phosphorothioate chemistry. Graphs represent the fraction of oligo bound to the protein. Purified protein was incubated with 5 nM of labeled oligo for 15 min at 37° C. in a buffer consisting of 10 mM Tris-HCl (pH7.5), 100 mM KCl, 0.01% IGEPAL, 1 mM EDTA and 50 ng/μL BSA.
as §1

For data set [5], the target named is T2, mSSB1. Briefly: EMSA; 1 mM EDTA, 37C. The settings on record: label: FAM. As for the experimental part:
as §1

For data set [6], the target named is T1, hSSB1. The data set can be described thus: EMSA; 10 mM Tris, 1 mM EDTA, 37C; Table 7 gives 3 nM. The settings on record: label: FAM. As for the experimental part: as §2, §1

T2 sequence (Q8R2Y9 whole entry, one chain of several): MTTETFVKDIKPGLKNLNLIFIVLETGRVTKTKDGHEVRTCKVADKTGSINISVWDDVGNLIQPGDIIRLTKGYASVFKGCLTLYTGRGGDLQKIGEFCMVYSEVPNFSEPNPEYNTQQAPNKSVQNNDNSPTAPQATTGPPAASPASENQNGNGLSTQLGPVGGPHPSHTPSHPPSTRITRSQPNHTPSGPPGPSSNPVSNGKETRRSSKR
T1 sequence (Q9BQ15 whole entry, one chain of several): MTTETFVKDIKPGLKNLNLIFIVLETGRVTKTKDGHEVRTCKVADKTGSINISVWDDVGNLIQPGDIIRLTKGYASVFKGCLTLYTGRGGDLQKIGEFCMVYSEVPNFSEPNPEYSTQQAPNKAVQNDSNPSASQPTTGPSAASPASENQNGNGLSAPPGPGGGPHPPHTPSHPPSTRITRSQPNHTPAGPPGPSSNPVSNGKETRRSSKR
Sequence of hSSB2 (Q96AH0 whole entry, one chain of several): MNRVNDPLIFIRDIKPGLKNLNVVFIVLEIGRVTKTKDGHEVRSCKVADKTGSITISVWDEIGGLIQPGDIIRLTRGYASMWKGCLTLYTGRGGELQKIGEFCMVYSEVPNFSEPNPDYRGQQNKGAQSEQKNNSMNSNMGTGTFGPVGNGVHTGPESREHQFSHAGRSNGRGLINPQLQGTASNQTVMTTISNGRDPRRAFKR

The molecule CGCGUCACUCGCACUCGCCU (ssRNA, 2'-OMe all, PS all) [LSA_In3E3_CT5] came in with a binding signal in the data set with hSSB1 [1] of 0.46 normalized Rmax. Besides, binding with THOC4 (ALYREF) was put at a Kd of 125 nM.

With CCAGUGAGCCGGACUUGCCU (ssDNA, deoxyuridine in place of T, phosphodiester) [DNA_In3E3], the Kd (in general, the constant that tells how readily two partners part at equilibrium) in the data set with mSSB1 [2] worked out at 13.1 nM; with hSSB1 [3], 13.5 nM.

Take GUGCAUGGAAUCACGGAGUG (ssRNA, 2'-OMe all, PS all) [Open_A_1]: binding with THOC4 (ALYREF) was characterised by a dissociation constant (Kd) of 52 nM. In other words, the double-digit nanomolar range.

For the molecule CUCAUUCCUACCGACACCCC (ssRNA, 2'-OMe all, PS all) [Neg_C], the figures for the dissociation constant (Kd) with mSSB1 [2], in the data set with hSSB1 [4] and with THOC4 (ALYREF) were 15.4 nM, 10 nM and 150 nM, respectively.

CCAGUGAGCCGGACUUGCCU (ssRNA, phosphodiester, unmodified ribose) [RNA_In3E3]: the Kd with hSSB1 [3] is 137 nM. This counts as sub-micromolar.

GAGAACCGACUCGGGUAGAG (ssRNA, 2'-OMe all, PS all) [cdca3_L_ATG-3]: the binding signal in the data set with hSSB1 [1] was 1.09 normalized Rmax. Also, in the data set with THOC4 (ALYREF), the Kd stood at 58 nM.

Molecule CACGUACCUUAGUGCCUCAC (ssRNA, 2'-OMe all, PS all) [Open_L_1] returned a binding signal in the data set with hSSB1 [1] of 0.8 normalized Rmax. The Kd with THOC4 (ALYREF) was determined as 104 nM.

For the molecule CUCUUGGCUGAGCCCAUCUC (ssRNA, 2'-OMe all, PS all) [cdca3_A_ATG-3], the binding signal with hSSB1 [1] was determined as 1.3 normalized Rmax. Moreover, the Kd with THOC4 (ALYREF) turned out to be 134 nM.

In the data set with hSSB1 [1], CUGAAGCGUACCCUUUGGUG (ssRNA, 2'-OMe all, PS all) [ASO_E3E4] showed a binding signal of 0.75 normalized Rmax. The molecule further showed an equilibrium dissociation constant (Kd) in the data set with THOC4 (ALYREF) of 70 nM.

In the case of CCAGUGAGCCGGACUUGCCU (ssRNA, 2'-OMe all, PS all) [LSA_In3E3], in the data set with hSSB2, the binding result is “binds”. The Kd with mSSB1 [5] was 4.13 nM; with hSSB1 [6] it was 3.29 nM; with THOC4 (ALYREF), 81 nM.
